Values joined by “and” are separate entries in the source; they are usually repeats but may differ in a detail not shown here. Equal entries are not always repeated.
Details: Equus caballus, pH 6, 25 °C, Absorbance, cacodylate 0.03 M, reversible: yes

Sequence of Cytochrome c wild type, P00004 (P00004 whole entry): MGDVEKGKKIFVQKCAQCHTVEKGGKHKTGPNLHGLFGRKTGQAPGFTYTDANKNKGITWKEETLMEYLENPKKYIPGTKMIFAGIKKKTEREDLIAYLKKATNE

For Cytochrome c wild type, P00004, the denaturant m value (GdnHCl, KCl 0.1-1.0 M) was 3.31 kcal/mol/M, the “denaturant midpoint (higher = more stable)” value (GdnHCl, KCl 0.1-1.0 M) was 2.47 M and the unfolding free energy (GdnHCl, KCl 0.1-1.0 M) was 8.18 kcal/mol. For the same substance, the denaturant m value (Urea, KCl 0.1-1.0 M) was 1.28 kcal/mol/M, the “denaturant midpoint (higher = more stable)” value (Urea, KCl 0.1-1.0 M) was 6.26 M and the unfolding free energy (Urea, KCl 0.1-1.0 M) was 8.02 kcal/mol. For the same substance, the denaturant m value (Urea, KCl 0.1 M) was 1.25 kcal/mol/M and 1.37 kcal/mol/M.

— FireProtDB (doi:10.1021/bi982078m)
